From patent publication US20090317849

What was measured:
[1] = target: BSA (Bovine Serum Albumin) (UniProt P02769)
[2] = test system: T1, PKC (Protein Kinase C) matrix AAKIQASFRGHMARKK
T1 sequence: AAKIQASFRGHMARKK

[3] = test system: recombinant Mep45-kinase matrix fusion protein (PKC matrix)
[4] = test system: T2, cdc2-PK (cdc2 Protein Kinase) matrix PKTPKKAKKL
T2 sequence: PKTPKKAKKL

[5] = test system: recombinant Mep45-kinase matrix fusion protein (cdc2-PK matrix)

Sequence of BSA (Bovine Serum Albumin) (P02769 25-607): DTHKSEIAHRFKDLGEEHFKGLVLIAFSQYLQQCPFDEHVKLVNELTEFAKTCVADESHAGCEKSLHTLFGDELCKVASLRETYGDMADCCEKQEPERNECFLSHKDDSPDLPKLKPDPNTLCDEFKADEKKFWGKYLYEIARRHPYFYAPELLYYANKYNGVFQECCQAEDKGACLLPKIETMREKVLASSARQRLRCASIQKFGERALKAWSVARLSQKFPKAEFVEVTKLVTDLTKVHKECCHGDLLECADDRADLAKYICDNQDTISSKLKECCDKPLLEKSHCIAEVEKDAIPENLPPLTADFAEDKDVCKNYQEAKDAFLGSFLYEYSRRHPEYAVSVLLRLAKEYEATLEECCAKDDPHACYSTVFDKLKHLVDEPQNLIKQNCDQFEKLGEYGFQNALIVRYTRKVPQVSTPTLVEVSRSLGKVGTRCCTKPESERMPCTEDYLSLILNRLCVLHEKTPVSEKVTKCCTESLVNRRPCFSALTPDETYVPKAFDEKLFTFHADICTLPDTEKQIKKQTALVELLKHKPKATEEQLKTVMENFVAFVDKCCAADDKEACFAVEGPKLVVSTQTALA

Substance	phosphorylation on chip with [gamma-32P]ATP, X-ray film or X-ray fluorescence spectrometer [1]	phosphorylation on chip with [gamma-32P]ATP, X-ray film or X-ray fluorescence spectrometer [2]	phosphorylation on chip with [gamma-32P]ATP, X-ray film or X-ray fluorescence spectrometer [3]	phosphorylation on chip with [gamma-32P]ATP, X-ray film or X-ray fluorescence spectrometer [4]	phosphorylation on chip with [gamma-32P]ATP, X-ray film or X-ray fluorescence spectrometer [5]
PKC (Protein Kinase C)	no signal was detected on the spot of BSA (negative control)	clear signal was detected on the spot of AAKIQASFRGHMARKK matrix (FIG. 5A)	clear signal was detected on the spot of ... Mep45 fusion matrix (FIG. 5B)	–	–
cdc2 protein kinase	no signal was detected on the spot of BSA (negative control)	–	–	clear signal was detected on the spot of PKTPKKAKKL matrix (FIG. 4A)	clear signal was detected on the spot of ... Mep45 fusion matrix (FIG. 4B)
